Test results: the domain aggregation screens of Martell et al. (2025)

experiment: soluble fraction after stress (log2 fold change); higher = more stays soluble; pooled small domains, quantitative proteomics; conditions: stress: pH 4
In short: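 Aggregation propensity is read out as the fold change in how much of each domain remains soluble after acid stress. The custom small-domain libraries were pooled, held at pH 4 and analysed with high-throughput quantitative proteomics. On the log2 scale used, higher values mean more of the domain stayed soluble.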

First: HMGQGSAFVYYEVLPKQTEYSLTRKLGLGYADLLSLNPQLARGLQAGMVLKIPRDKAGNLEVKNDLILE
Second: HMGQISLSVNAIPEKAEVILDGNSIGNTPIRKNTITPGSHMFEIEKKGYAPISYDIYVNPSKAINLDFFM
The “soluble fraction (log2)” value of the first is higher: 0.165 for the first, -0.153 for the second.

Going from “HMGQKDYKTRLQEYFAKQGLKVNYEDTSHGPDHNKNFSTDVFLDGKIIGSGIGKSKKSSQQSAAKDALNIL” to “HMGQLIGKEEAKQIALSRAGVAEGDISRYESELDTDDGKTKYEISFHVGRVEYDIEINAVTGAVEKFEMDN”, the “soluble fraction (log2)” value falls from at least 0.43 to 0.0113.

First: HMGQTDTIIKTTTDLYYEMSTMSDDDKLVVAQTLRDVWMAVGRWSGKLSKKQREKVAEVKRVLGE
Second: HMGQVAKPPLKELGADPVTGKPMVLKDGRFGPYVTDGEYNASLRKDDDIETIGVERAAELLQIRREKGP
The “soluble fraction (log2)” value of the first is lower: -0.5 for the first, -0.0291 for the second.

“HMGQVGIPFSDFLAEVENGQVREVVIKGNDISGTFNDNRGFSTYAPNDPNLVEKLTKRGVVINAQPTE” and “HMGQVSEAGELEVAADRVIAANPEAVTKYKSGNENILQFLVGQMMKETKGAANPQVAAEILRKKIV” are within 0.2 log units of each other in “soluble fraction (log2)” value: 0.123 for the first, 0.0296 for the second.

Going from “HMGRELDLNQRVYDFIHDIADEVRTDEGTFSANQMMERFLFPGDLQSVPIGRLSGGERRRLYLLSVLMVKI” to “HMGRFPSLTPVVIDALTAQYREHPGWTVQLHVDNLRVVLAANQTPLPSYPTIRRYLLAQGMRRQTRP”, the “soluble fraction (log2)” value rises from -1.15 to -0.176.

“HMGRLNMRRIRDVLRLKFGQGLSERQVAASLGLSKTSVGTYLHRARQAGLTWPLPQGLDDDGLELLLFP” and “HMGRMTRKDRALATDLYGRIVGNVDDFHEGRIDYETFSERQRGLWTTLDAAGPEVKRAVLADIRERL” are within 0.2 log units of each other in “soluble fraction (log2)” value: 0.0376 for the first, 0.23 for the second.

Compared with “HMGRWQPSTSAKQHGESALLLERLLHLERLTVSEAFHVLTINHRLNLSLPEYRSLLAVVQLPK”, “HMGRYDWIEQIDDPVLAERLKHLTEDDLELLTRYVFEDATQKELASQYGIGQQSVSKRLKKLKSFLTK” is higher in “soluble fraction (log2)” value: -1.31 for the first, -0.683 for the second.

Compared with “HMGSATAPDLKGLTYEQAQTKAEDAGYNIEKGEDVYDNDVEKGKVASQDPEAGAEAKEGSVITVNISK”, “HMGSFAADVGRMVRLGRAKRGISRRKLAADSGISERYLAQIEGGQGNPSVNVLKAIADAISVPVFELLPH” is lower in “soluble fraction (log2)” value: 0.168 for the first, -0.197 for the second.

First: HMGSFDDAPDQLRQSILQLLAEGPLPPSAITERLNISREDATEALQQLLDEQRIFAVNGMLQLQPG
Second: HMGSFTDKQIKQAFGVLNDPRFKQGNYDGAVAVINKIAPGLADHPSVANALKRANEATQDIAQQTQA
The “soluble fraction (log2)” value of the first is lower: -0.538 for the first, 0.161 for the second.

“HMGSGQIRYITENTVRVVYGTSKENEFVFQDGKPYPKDTPYHIHYTRNLEEYFMSGVEHDKNSKIILKVD” and “HMGSGVNVTVNGKRMNLPLKDDHIIFVDIFNYIDFDLSKPKGSIVLKLNGRDAGYTDPIKDGDVIDIYWQ” are within 0.2 log units of each other in “soluble fraction (log2)” value: -0.792 for the first, -0.686 for the second.

Going from “HMGSIDYLVGSRLRQYRRLRGYSLIEFSAMLHRSKSAISKYERGEVSIDLRTLNEMARLLDIPLSGLLL” to “HMGSIEASFEEDVRRYLARKSMTTTEISKKMRQKRPDMSRDQLMTLLANAIKRIKPIKKKIKGTLYLSLE”, the “soluble fraction (log2)” value rises from -0.283 to 0.259.

First: HMGSIMIIVLKENAPQQAAEKLMKEIRAKGLQIDVSKGTRKTVLGLVGDTSVIDMEHVQGYDYVDKVLRV
Second: HMGSKDLPFSTFMSEIDKGNITSVDIRGNEIQGTFANGTKFRTYSPNYPNLVEKLNGKGVSITAGPV
The “soluble fraction (log2)” value of the first is lower: -0.674 for the first, 0.211 for the second.

“HMGSKKITIYVSGEVKNPGIVTLNSDQRLASAVEKLGGVTENADMNNINLAMKLEDEMHYIIPKKGEK” and “HMGSKQVSVPDVRNLDYERASQQLREAGFVVGDVLRIRDDRAPAGTVIAQSPAAPALVPENARVSLLVSSG” are within 0.2 log units of each other in “soluble fraction (log2)” value: 0.149 for the first, 0.00984 for the second.

Going from “HMGSLAVVPSLTGKTLQEAQSKAADYGLALEIEGYVASTAVDYGRIVSQSPDAGFSVKSGSSVKVSVSAG” to “HMGSLGRAIRSRREKMKVGLEELAAKTGLSESHISDIEEGRGFAPVGDILKIARALTIDPGELLK”, the “soluble fraction (log2)” value falls from at least 0.43 to 0.426.

First: HMGSLGSLLKSVRNQRGLSRQQMAQSLNIGVRAIEQIEEGERKPDLELLNRYARGLMDPSVT
Second: HMGSLKEKIVLLEKLYQQNPSEEIKLLLINTYQLNHQYIQARKLFFTLTPEQKEKLPLASEFLIFL
The “soluble fraction (log2)” value of the first is higher: -0.138 for the first, -0.725 for the second.

Compared with “HMGSLNDQVMKYIDALPSAFNKRELDFLIERGVKEFALNGEYLEKAIINEYKLTADTYHRER”, “HMGSLQPLLLAAIDALQTHIRSGLPFRVEERLAELDQFRTELQNGSVPPQRGVNRLWAFYEDEFRL” is lower in “soluble fraction (log2)” value: 0.129 for the first, -0.386 for the second.

First: HMGSLRSALDGIPGIGEQYQKRLLAQFGSVKAMRSASVEDFEAVRGIGRAKAQALYDALHAG
Second: HMGSLVVVPNLVGQNYDEVKLSTKYSDFEIVQKNTEYSEAPAGQIIKQDPEAGTKVKKHSTINVTVSK
The “soluble fraction (log2)” value of the first is higher: 0.13 for the first, -0.287 for the second.

Going from “HMGSQELIQLGERIRQKRKDSHLTQETFAEKAGISVNTVSRIEGGQAAMSIEIFAKLVEILDADANELLG” to “HMGSRAEAKEFLQTMLADGRQLATDMEEARQAHDIADRTLRRARKELNVQVYRDGNAWYWELPTPIK”, the “soluble fraction (log2)” value rises from -1.07 to -0.567.

First: HMGSREVPFSDFISKVESGSVLEVVLRGRQVEGLTDANERFQTQIPNYPALFEILERNQVRTRVEPT
Second: HMGSTATVIASRLNMRASASTTGALLTKIPNGATVTVLGTTGAWSHIRYGSYTGYVMSQYLRING
The “soluble fraction (log2)” value of the first is lower: -0.814 for the first, -0.211 for the second.

“HMGSTVRIVVPAADIPAYKDIQPSDLEYREVPKDEISEDAVTDPQEVINKYSTSPLYAGWPINKNIIET” and “HMGSYANAWQLAEHAAKDMLGEVIYLLDGKEVHAGILETMSAESIKTASAENVDGKVVIRLVSK” are within 0.2 log units of each other in “soluble fraction (log2)” value: -0.202 for the first, -0.371 for the second.

Going from “HMGSYIGEAKAKEIALSHAGVSASQATFVRSQFEYDDGRAVYDVDFWSGNKEYDYEIDAKSGTIVSYDFD” to “HMGSYVVQLGAFAIRANAEKLAREVDGSIATSGRFSLVRVGPFTSRGQAEQALAKLRARGYSDALIHSL”, the “soluble fraction (log2)” value falls from 0.0669 to -0.234.

First: HMGTDFRPVFQYVDELVRAGEFTNLKGMIYFTDGRGIFPEKKPDYDAAFVFLDDGYDPPDVPVWAIKLVL
Second: HMGTGSSAERITMLNSILERQIQAMEIQGNPDAPIVNIQKIYTTLQRIVETAGLKDVDQFFMNPLQGQKEM
The “soluble fraction (log2)” value of the first is lower: -0.709 for the first, -0.407 for the second.

First: HMGTIRAPMPGTILKINVVDGDSVTKGDVLLILESMKMENSITSPKTGSVTSVYVSEGDPVQHGETLIDL
Second: HMGTISKRINPSGTTVYRAVIRIRKNGYPNFTESRTFSKKSMAAEWVKRREAEIELNPDILFG
The “soluble fraction (log2)” value of the first is lower: -1.22 for the first, -0.0195 for the second.

Going from “HMGTLSLLVQKLMAVGLEGAKASEIVERFDRERIERQINALPSRKIKSSRTGFLIRAIELDIPVE” to “HMGTPKMPLSLYLSMVENLRSLKRFALVNQQVKDGFVFFNDVAGIKRLQELLNYHNTGEKPSE”, the “soluble fraction (log2)” value rises from -1.31 to -0.287.

“HMGTRIQAVMEDIQSRIAARTYLPGTRLPSVRAQAQAMQVSVSTVVEAYERLAAEGVIASRPGSGFYVAGP” and “HMGTRPAYAADAPNPQKRFIYHRIVDQLRNKATGAPISYRAIAAETGVSVQTVINIKNRMNQMLSEK” cannot be ordered by “soluble fraction (log2)” value: at least 0.43 for the first, at least 0.43 for the second.

“HMGTRPIQIASFSKEENAKRAVEALAKIGITAQPQKSGSATKAVWGVVANGDADLLAKIKAAGFADAYFL” and “HMGTRTILGIDPGSRKTGFGIIRLDGSRTHYVSSGVIRIPDTALPERLKIIFASLNEIIQQFQPQEV” are within 0.2 log units of each other in “soluble fraction (log2)” value: 0.179 for the first, 0.107 for the second.

“HMGTRYVEFVIPGTGNHEVRIVSSNGSRQNVEVAGTYPGGARLRTKVDNGVRRVSFYVDNRLVEEKQ” and “HMGTSFKITFYKDAFQVDDGPIRMLNDPANQKFVDEVSQGYAPKELIGQGGKAPEIDIIDKRSENAPT” are within 0.2 log units of each other in “soluble fraction (log2)” value: -0.0183 for the first, -0.0971 for the second.

Going from “HMGTVFTDIMTDIASGKFPNVFPDSLEAQIQKNVTMAPDKLSATLQYGDKSVILPTTKGKEAAEAAVKAA” to “HMGTYTSALDGIKGLGKKRKMLLLNTYKSIDVLKSVPLTELSQLIPREVAEALLTKLNRVDD”, the “soluble fraction (log2)” value rises from -0.648 to 0.116.

Compared with “HMGVDASVDSKLDLLSQVLDSDQVKEQLPEAVLEQLAQNLDRWRSLHEESELQDDDIAELNRLLGLFGLG”, “HMGVEKHLRITGTSTVSWKDAIVQAVAEASKTIDYLSNVKIIEQRARIDGKKLVEYFVDLDLSFVID” is higher in “soluble fraction (log2)” value: -1.67 for the first, -0.38 for the second.

“HMGVGITAPLAGNIFKIVVQPGDVVASGDVVLVLEAMKMETEIRAASGGTVSQVLVREGDAVDAGHTLITL” and “HMGVGVTAPLAGNIFKIVKQPGDVVASGDVVLILEAMKMETEIRAAAGGTVKQVLVREGDAVDAGHTLMTL” are within 0.2 log units of each other in “soluble fraction (log2)” value: -1.49 for the first, -1.59 for the second.

First: HMGVHSVVPDIKNKHYGEAKAILAANGLSIEISDSIYDRSVAPGTVVESWPKAGAIVKGDRAVFVTLTAF
Second: HMGVMTGAEFVGNTVASVERNLIIDTLKHTMGNRTTAANILGISIRTLRNKLKQYQNEGFDIPE
The “soluble fraction (log2)” value of the first is lower: -1.17 for the first, 0.185 for the second.

Going from “HMGVPELHKGEIVQAVVEKVLGEGLLRVNLKGMTVEAATSLRLNPGQQLLLRSEGIENGRQVLR” to “HMGVQKGKDNALAVQQWIAERDATGDFGEYERRGIINRSALFDELGIPRSSMGSNDQIRQMIEAADVRWF”, the “soluble fraction (log2)” value falls from 0.042 to -0.663.

First: HMGVREIIVQFLEQFDKPKSVQEIVEYVLRYRNTTENSIRSTMYSGSQFRQFDNGYFGLSDKSYPNEYIYA
Second: HMGVRLAPEVDRIPYGQMHPNLKKVKDLYEASYKAYVQALSSGNQALAKEKLEEFQSTKARYQRALSAYT
The “soluble fraction (log2)” value of the first is lower: -1.25 for the first, 0.195 for the second.

First: HMGVRVEVDAVTPPGAMASGSVVFSDGESKKWSVDQFGRLAMTGGAPDYKPSDQDVMEFQQQLEQSL
Second: HMGVSAGQVRGLIRNLIAGEDKSKPLSDLALERELEKREIRISRRTVAKYRAELGIPNSDQRRYLP
The “soluble fraction (log2)” value of the first is lower: -0.57 for the first, 0.0779 for the second.

Compared with “HMGVSLKEIQENLSLIDDAAQKLASGQGTVDDAVGMGNAGKDIYDNIEGYVSSPKEFINGVLSSV”, “HMGVSVNVQPAILDWAMQKAQMGNAGSSVIEMIAKWISGEKAPTFNQIEDVSKKISIPFGFFFLKEPPIE” is lower in “soluble fraction (log2)” value: -0.823 for the first, -1.21 for the second.

Going from “HMGVTGYPNPTREHITWDDARRIEVWNAYGVPVADLRFARGVLDVAGWPVGTYVARIDGGRSVRFVVI” to “HMGVTVDEVHRNFESGMNVVHKKFGAGVVDSFDEGKIRINFDGVIKVFIADVLINSGMLESVSYTH”, the “soluble fraction (log2)” value falls from -0.663 to -0.922.

Going from “HMGWEDLVGKTAVVKVALAPVGMVFFRGEFWSAISETGRIEPGEEVTISRIDGLKLYVTKKRIM” to “HMGWEPTPVLVAARDISGGTVLDQDMLRVEAIPSRLVTPSIVRSDLLASVQDAKLLLPMKQGDLLNFNMLQ”, the “soluble fraction (log2)” value falls from at least 0.43 to -0.49.

With “HMGWVMLVIMSRGASEAQINAVVEKIRAAGLTEHLSKGIERTIIGAIGEERKLEPEVFELLPGVEQALHIV” the “soluble fraction (log2)” value was -0.713.
